{
  "source": "patent US20240325557A1",
  "about": "“TREATMENT OF CANCER” (INNATE PHARMA, priority 2020, published 2024)",
  "molecules": {"B1": {"name": "N41 (antibody, V domains shown)", "VH": "QVQLKQSGPGLVQPSQSLSITCTVSGFSLTNYGVHWVRQSPGKGLEWLGVIWSGGSTDYNAAFISRLSISKDTSKSQVFFKMNSLQADDTAIYYCARELIHAMDNWGQGTSVTVSS", "VL": "DIQMTQSPASLSVSVGETVTITCRASENIYSNLAWYQQKQGNSPQLLVFAATNLADGVPSRFSGSGSGTQYSLKINSLQSEDFGTYYCQHFWGTPTFGGGTKLEIK"}, "B2": {"name": "5E7 (antibody, V domains shown)", "VH": "QVQLQQPGAELVKPGASVKLSCKASGYIFTSYWMHWVKQRPGQGLEWIGEIDPSDSYTNYNQKFKGKATLTLDKSSSTTYMQLSSLTSEDSAVYYCVRGYGNYGDYWGQGTTLTVSS", "VL": "DVVMTQAAFSNPVTLGTSASISCRSSKSLLHSNGITYLYWYLQKPGQSPQLLIYQMSNLASGVPDRFSSSGSGTDFTLRISRVEAEDVGVYYCAQNLELPWTFGGGTKLEIK"}, "B3": {"name": "10B12: anti-Nectin-4 antibody, VH SEQ ID NO: 24, VL SEQ ID NO: 25, binds junction of domain C1 and V (antibody, listed as Mus musculus, V domains shown)", "VH": "QVQLQQPGAELVKPGASVKLSCKASGYTFTSYWMHWVKQRPGQGLEWIGEIDPSDSYTNYNQKFKGKATLTVDKSSSTAYMQLSSLTSEDSAVYYCVRGYGNYGDYWGQGTTLTVSS", "VL": "DIVMTQAAFSNPVTLGTSASISCRSSKSLLHSNGITYLYWYLQKPGQSPQLLIYQMSNLASGVPDRFSSSGSGTDFTLRISRVEAEDVGVYYCAQNLELPWTFGGGTKLEIK"}},
  "experiment_in_all_cases": "Binding to cell surface expressed Nectin-4 point mutant",
  "conditions_in_all_cases": "HEK-293T",
  "key": {"[1]": {"target": "T1, Nectin-4 Mutant 1 (S58P/G59D/Q61A/N106D/P107A) (Homo sapiens, UniProt Q96NY8, G59D/N106D/P107A/Q61A/S58P)", "T1 construct": "expressed in transfected cells; host or cells: HEK293T", "T1 sequence (Q96NY8 32-510 S58P/G59D/Q61A/N106D/P107A)": "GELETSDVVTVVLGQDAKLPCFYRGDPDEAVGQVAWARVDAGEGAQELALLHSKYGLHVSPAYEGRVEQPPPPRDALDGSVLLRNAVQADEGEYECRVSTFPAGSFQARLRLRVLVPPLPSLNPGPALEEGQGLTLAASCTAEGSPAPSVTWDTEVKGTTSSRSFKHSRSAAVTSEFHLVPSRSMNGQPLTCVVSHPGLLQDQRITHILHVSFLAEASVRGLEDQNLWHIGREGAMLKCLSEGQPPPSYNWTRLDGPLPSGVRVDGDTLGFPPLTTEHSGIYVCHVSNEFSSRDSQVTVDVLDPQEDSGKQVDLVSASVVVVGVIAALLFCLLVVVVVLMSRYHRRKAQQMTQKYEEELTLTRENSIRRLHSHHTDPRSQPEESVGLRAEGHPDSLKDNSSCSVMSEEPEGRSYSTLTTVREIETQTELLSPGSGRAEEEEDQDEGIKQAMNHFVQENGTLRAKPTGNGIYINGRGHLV", "description": "(§1) Combined with the published structures of the Nectin-4 domains, Nectin-4 mutations at surface exposed amino acids residues were designed. Nectin-4 domain structure was modelled based on Protein Data Bank reference: 4FRW (domains V et C1). Human Nectin-4 used was NCBI Reference Sequence: NP_112178.2, mouse Nectin-4 used was NCBI Reference Sequence: AAL79833.1, cynomolgus Nectin-4 used was NCBI Reference Sequence: XP_005541277.1, rat Nectin-4 used was NCBI Reference Sequence: NP_001102546.1. The cells expressing the Nectin-4 mutants are then be used for testing anti-Nectin-4 antibodies for loss of binding to different Nectin-4 mutants to identify antibodies that bind to the same site on Nectin-4. […] FIGS. 12A and 12B show a molecular model of the human Nectin-4 protein, indicating the position of substituted residues in mutants 7 (12A) and in mutants 7bis (12B); these mutants are in the C1 domain identify two sites at the junction of domain C1 and V domain that are on opposing faces of the Nectin-4 protein.\n(§2) Nectin-4 mutants were generated by PCR. The sequences amplified were run on agarose gel and purified using the Macherey Nagel PCR Clean-Up Gel Extraction kit. The purified PCR products generated for each mutant were then ligated into an expression vector, with the ClonTech InFusion system. The vectors containing the mutated sequences were prepared as Miniprep and sequenced. After sequencing, the vectors containing the mutated sequences were prepared as Midiprep using the Promega PureYield™ Plasmid Midiprep System. HEK293T cells were grown in DMEM medium (Invitrogen), transfected with vectors using Invitrogen's Lipofectamine 2000 and incubated at 37° C. in a CO2 incubator for 48 hours prior to testing for transgene expression. The targeted amino acid mutations are shown in Table 2 below, listing the residue present in wild-type Nectin-4/position of residue/residue present in mutant Nectin-4, with position reference being to the Nectin-4 protein with leader peptide shown in SEQ ID NO: 1."}, "[2]": {"target": "T2, Nectin-4 Mutant 2 (V90S/P92A/A93S/E95A/G96D) (Homo sapiens, UniProt Q96NY8, A93S/E95A/G96D/P92A/V90S)", "T2 construct": "expressed in transfected cells; host or cells: HEK293T", "T2 sequence (Q96NY8 32-510 V90S/P92A/A93S/E95A/G96D)": "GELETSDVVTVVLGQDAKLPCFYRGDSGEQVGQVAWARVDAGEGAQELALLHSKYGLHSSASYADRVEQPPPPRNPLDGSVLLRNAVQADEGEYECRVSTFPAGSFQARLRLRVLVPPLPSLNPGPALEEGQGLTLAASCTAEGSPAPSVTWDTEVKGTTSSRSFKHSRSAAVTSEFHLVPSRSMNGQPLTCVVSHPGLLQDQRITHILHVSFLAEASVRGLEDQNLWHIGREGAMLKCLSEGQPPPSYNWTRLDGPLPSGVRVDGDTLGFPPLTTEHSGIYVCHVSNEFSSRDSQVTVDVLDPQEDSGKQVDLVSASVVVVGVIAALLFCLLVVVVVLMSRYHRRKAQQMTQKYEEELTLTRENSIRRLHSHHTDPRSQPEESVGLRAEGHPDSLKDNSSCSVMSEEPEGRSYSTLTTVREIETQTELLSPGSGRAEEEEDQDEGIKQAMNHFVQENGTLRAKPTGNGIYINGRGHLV", "description": "as §1, §2"}, "[3]": {"target": "T3, Nectin-4 Mutant 4 (A72P/G73N/G75S) (Homo sapiens, UniProt Q96NY8, A72P/G73N/G75S)", "T3 construct": "expressed in transfected cells; host or cells: HEK293T", "T3 sequence (Q96NY8 32-510 A72P/G73N/G75S)": "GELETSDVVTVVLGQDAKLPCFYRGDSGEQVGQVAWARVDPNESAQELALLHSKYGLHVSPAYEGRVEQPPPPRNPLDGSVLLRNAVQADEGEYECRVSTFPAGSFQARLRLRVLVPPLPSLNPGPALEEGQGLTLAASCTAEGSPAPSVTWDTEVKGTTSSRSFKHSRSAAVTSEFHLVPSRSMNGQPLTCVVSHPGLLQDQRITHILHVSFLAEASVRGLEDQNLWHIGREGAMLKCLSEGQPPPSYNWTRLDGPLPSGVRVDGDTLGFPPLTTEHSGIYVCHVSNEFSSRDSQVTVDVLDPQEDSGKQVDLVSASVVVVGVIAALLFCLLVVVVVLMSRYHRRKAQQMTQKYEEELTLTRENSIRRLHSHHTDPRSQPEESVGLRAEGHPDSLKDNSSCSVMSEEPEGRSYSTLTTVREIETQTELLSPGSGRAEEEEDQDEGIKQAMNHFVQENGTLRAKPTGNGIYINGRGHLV", "description": "as §1, §2"}, "[4]": {"target": "T4, Nectin-4 Mutant 9 (L150S/S152A/Q234R/I236S) (Homo sapiens, UniProt Q96NY8, I236S/L150S/Q234R/S152A)", "T4 construct": "expressed in transfected cells; host or cells: HEK293T", "T4 sequence (Q96NY8 32-510 L150S/S152A/Q234R/I236S)": "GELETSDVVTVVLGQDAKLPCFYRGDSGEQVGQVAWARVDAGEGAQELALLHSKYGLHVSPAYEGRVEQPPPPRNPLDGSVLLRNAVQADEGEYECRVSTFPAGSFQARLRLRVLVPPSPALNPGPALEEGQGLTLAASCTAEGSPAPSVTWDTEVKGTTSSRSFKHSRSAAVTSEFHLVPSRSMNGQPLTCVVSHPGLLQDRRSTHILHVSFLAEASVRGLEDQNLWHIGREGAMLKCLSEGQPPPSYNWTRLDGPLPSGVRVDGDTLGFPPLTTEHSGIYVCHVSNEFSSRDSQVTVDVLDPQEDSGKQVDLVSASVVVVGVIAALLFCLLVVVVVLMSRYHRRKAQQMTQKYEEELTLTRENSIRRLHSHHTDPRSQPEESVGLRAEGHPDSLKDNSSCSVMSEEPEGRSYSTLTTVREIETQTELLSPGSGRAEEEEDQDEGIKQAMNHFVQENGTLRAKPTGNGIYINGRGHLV", "description": "as §1, §2"}},
  "data": [
    {"molecule": "B1", "values": [
      {"measurement": "association with Nectin-4 Mutant 1", "setting": "[1]", "value": "−"},
      {"measurement": "association with Nectin-4 Mutant 2", "setting": "[2]", "value": "+"},
      {"measurement": "association with Nectin-4 Mutant 4", "setting": "[3]", "value": "+"},
      {"measurement": "association with Nectin-4 Mutant 9", "setting": "[4]", "value": "+"}
    ]},
    {"molecule": "B2", "values": [
      {"measurement": "association with Nectin-4 Mutant 1", "setting": "[1]", "value": "+"},
      {"measurement": "association with Nectin-4 Mutant 2", "setting": "[2]", "value": "+"},
      {"measurement": "association with Nectin-4 Mutant 4", "setting": "[3]", "value": "+"},
      {"measurement": "association with Nectin-4 Mutant 9", "setting": "[4]", "value": "+"}
    ]},
    {"molecule": "B3", "values": [
      {"measurement": "association with Nectin-4 Mutant 1", "setting": "[1]", "value": "+"},
      {"measurement": "association with Nectin-4 Mutant 2", "setting": "[2]", "value": "+"},
      {"measurement": "association with Nectin-4 Mutant 4", "setting": "[3]", "value": "+"},
      {"measurement": "association with Nectin-4 Mutant 9", "setting": "[4]", "value": "+"}
    ]}
  ]
}
